Reference: US20200256880A1 (BROAD INSTITUTE, published 2020)

Columns and labels:
Assay in all cases: western blot of recombinant protein
[1] = molecular target: recombinant CNAα double mutant S462E/S469E (human, UniProt Q08209 1-521, limits assumed)
Procedure: (§1) Levels of total CNAα were used as a loading control and were assessed after stripping of the membranes and incubation with anti-CNAα rabbit by chemiluminescence (bottom panel).

[2] = molecular target: T1, recombinant human CNAα S469E phosphomimetic mutant (human, UniProt Q08209 1-521, limits assumed)
T1 construct: Co-expressed with CNB1 in E. coli and co-purified; also called S469E CNAα; phosphomimic mutant S469E
Procedure: as §1

[3] = molecular target: T2, recombinant human CNAα wild type (unphosphorylated) (human, UniProt Q08209 1-521, limits assumed)
T2 construct: Co-expressed with the CNB1 subunit in E. coli and co-purified; run on denaturing gels for western blot; also called wild-type CNAα; WT CNAα
Procedure: as §1

binding result [1]: binds
binding result [2]: binds
binding result [3]: no binding
B1: monoclonal mouse anti-pS469 CNAα antibody (antibody, V domains shown)
VH: EVQLQQSGAELVRPGASVKLSCTASDFNIKDTYIHWLKQRPEQGLEWIGRIDPANSNPKYDPNFQGKATITTDTSSNTAYLQLSSLTSDDTAVYYCTRRDYYGSGSWFAYWGQGTLVTVSS
VL: DIVMTQAAPSVPVTPGESVSISCRSSKSLLHSNGNTYLYWFLQRPGQSPQLLIYRMSNLASGVPDRFSGSGSGTAFTLRINRVEAEDVGVYYCMQHLEYPLTFGAGTKLELK
notes: 7 and 9 are used; Mouse monoclonal; also called monoclonal mouse anti-S469 phosphospecific antibody; monoclonal murine anti-S469 CNAα phosphospecific antibody
